Data reported in paper PMC4986862.

Target: BD–PTLΔC1 (PETAL LOSS with the C-terminal activation region removed, fused to the GAL4 binding domain) (Arabidopsis thaliana)
Test: two-hybrid; quantitative: α-galactosidase activity of the MEL1 reporter in liquid cultures, triplicate technical assays; BD–PTLΔC1 bait

B1: AD–AKIN11 (full-length AKIN11 fused to the GAL4 activation domain) (natural protein)
chain: MDHSSNRFGNNGVESILPNYKLGKTLGIGSFGKVKIAEHVVTGHKVAIKILNRRKIKNMEMEEKVRREIKILRLFMHPHIIRQYEVIETTSDIYVVMEYVKSGELFDYIVEKGRLQEDEARNFFQQIISGVEYCHRNMVVHRDLKPENLLLDSRCNIKIADFGLSNVMRDGHFLKTSCGSPNYAAPEVISGKLYAGPEVDVWSCGVILYALLCGTLPFDDENIPNLFKKIKGGIYTLPSHLSSEARDLIPRMLIVDPVKRITIPEIRQHRWFQTHLPRYLAVSPPDTVEQAKKINEEIVQEVVNMGFDRNQVLESLRNRTQNDATVTYYLLLDNRFRVPSGYLESEFQETTDSGSNPMRTPEAGASPVGHWIPAHVDHYGLGARSQVPVDRKWALGLQSHAHPREIMNEVLKALQELNVCWKKIGHYNMKCRWVPGLADGQNTMVNNQLHFRDESSIIEDDCAMTSPTVIKFELQLYKAREEKYLLDIQRVNGPQFLFLDLCAAFLTELRVI
fold lower reporter (α-galactosidase) activation than AD–AKIN10: > 10 fold
